Target: T1, Flag-tagged full-length CHDP-1 (C. elegans, UniProt P91027 1-338)
T1 construct: CHDP-1 (C10G11.7), single type III calponin homology domain protein of C. elegans; fragment limits show 338 residues; Cloned into a modified pFLAG-CMV-2 vector; In the self-association co-IP the second copy carried Myc (modified pcDNA3.1/myc-HIS(-) vector) in place of Flag; also called FLAG-CHDP-1; C10G11.7; source: HEK293T, transfected, in lysate
T1 sequence (looked up): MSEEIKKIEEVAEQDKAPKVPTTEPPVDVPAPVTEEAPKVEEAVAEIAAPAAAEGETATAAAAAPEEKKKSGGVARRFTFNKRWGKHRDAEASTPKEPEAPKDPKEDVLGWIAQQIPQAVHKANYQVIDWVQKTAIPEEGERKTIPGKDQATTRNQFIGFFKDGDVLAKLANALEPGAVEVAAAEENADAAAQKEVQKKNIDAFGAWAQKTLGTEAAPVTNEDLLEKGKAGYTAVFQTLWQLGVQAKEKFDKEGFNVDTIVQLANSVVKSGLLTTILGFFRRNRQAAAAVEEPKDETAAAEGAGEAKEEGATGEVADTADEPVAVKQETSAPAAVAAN
Experiment: co-IP; Flag-CHDP-1 and Myc-CED-10 expressed in HEK293T cells, affinity purified, mixed together, then co-immunoprecipitated with Flag or Myc antibodies
Details: both partners purified

B1: Myc-tagged CED-10 (natural protein)
chain: not shown
notes: CED-10, Rac1 homolog (Rho family small GTPase) of C. elegans; cDNA from Dr. Yuji Kohara; Cloned into a modified pcDNA3.1/myc-HIS(-) vector; also called Rac1/CED-10; worm Rac1 homolog; source: HEK293T, transfected, in lysate
binding result: binds

Reference: article PMC4944944, “The Calponin Family Member CHDP-1 Interacts with Rac/CED-10 to Promote Cell Protrusions” (PLoS Genetics, 2016)
